# Assay results from article PMC3310290.
# Target: fibrin (Homo sapiens) (UniProt P02671)
# Assay: ELISA
# Chain of fibronectin, P02751 (P02751 32-2477): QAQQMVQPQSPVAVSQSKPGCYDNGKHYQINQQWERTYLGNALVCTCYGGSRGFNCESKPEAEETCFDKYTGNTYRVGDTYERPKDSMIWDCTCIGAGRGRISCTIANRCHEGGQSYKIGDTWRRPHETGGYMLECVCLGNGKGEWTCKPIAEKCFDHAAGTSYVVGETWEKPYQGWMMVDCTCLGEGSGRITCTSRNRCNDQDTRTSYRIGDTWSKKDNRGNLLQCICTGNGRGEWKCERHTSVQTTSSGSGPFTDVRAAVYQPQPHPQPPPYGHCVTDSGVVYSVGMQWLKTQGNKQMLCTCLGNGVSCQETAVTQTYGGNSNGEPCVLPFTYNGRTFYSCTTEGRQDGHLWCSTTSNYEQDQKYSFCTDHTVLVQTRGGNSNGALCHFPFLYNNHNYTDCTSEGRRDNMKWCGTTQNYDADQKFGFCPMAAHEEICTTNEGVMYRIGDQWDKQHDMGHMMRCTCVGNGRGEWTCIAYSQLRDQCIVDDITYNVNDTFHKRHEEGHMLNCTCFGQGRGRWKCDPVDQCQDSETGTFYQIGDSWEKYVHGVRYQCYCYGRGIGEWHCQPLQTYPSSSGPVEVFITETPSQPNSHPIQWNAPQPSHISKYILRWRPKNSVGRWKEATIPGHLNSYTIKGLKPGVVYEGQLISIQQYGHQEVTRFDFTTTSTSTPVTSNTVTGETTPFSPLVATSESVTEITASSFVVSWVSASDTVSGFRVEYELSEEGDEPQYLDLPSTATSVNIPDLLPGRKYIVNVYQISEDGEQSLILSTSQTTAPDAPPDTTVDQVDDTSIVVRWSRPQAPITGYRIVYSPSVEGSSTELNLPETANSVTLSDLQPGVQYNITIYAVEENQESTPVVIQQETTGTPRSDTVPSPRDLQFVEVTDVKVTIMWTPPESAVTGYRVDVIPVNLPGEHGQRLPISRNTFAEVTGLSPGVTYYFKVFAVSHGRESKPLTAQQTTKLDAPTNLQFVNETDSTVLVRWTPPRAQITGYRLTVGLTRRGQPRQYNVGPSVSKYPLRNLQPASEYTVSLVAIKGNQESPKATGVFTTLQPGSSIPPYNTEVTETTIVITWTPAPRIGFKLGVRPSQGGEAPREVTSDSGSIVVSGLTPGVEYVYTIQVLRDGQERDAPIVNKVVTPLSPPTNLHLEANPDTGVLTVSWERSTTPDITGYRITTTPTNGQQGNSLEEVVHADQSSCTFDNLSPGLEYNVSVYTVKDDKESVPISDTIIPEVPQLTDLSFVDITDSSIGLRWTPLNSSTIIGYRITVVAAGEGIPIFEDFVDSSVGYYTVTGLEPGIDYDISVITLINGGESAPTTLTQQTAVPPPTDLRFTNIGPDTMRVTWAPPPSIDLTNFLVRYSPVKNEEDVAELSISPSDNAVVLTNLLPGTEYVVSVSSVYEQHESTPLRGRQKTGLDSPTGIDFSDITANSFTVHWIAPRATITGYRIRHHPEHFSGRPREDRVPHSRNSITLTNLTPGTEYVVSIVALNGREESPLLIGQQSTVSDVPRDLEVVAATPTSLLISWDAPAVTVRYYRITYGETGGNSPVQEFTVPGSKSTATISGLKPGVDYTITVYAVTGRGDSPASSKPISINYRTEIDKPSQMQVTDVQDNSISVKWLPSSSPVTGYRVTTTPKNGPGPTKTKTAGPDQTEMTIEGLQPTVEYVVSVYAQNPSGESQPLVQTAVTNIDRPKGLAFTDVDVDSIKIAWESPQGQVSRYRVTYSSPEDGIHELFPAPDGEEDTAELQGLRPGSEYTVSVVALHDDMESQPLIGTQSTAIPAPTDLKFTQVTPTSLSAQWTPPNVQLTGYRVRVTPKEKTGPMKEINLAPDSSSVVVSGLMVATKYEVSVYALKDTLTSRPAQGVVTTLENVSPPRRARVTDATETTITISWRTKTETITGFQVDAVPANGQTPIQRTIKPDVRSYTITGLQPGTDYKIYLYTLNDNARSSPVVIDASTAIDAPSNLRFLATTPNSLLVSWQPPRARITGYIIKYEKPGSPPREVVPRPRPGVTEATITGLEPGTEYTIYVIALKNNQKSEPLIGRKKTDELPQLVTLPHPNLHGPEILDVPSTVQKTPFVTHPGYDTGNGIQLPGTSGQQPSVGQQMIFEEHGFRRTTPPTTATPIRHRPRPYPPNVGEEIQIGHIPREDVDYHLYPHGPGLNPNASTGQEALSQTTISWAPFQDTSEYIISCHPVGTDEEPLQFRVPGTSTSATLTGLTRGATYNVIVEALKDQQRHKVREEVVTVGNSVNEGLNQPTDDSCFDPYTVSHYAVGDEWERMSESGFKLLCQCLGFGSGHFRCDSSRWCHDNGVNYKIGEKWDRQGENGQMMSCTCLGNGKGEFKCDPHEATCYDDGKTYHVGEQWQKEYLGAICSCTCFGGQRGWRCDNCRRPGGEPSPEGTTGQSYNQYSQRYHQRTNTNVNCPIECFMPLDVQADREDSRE
substance,measurement,value
"fibronectin, P02751",IC50,4.9 nM
